From patent publication US20030099654

Legend:
125I-prothrombin [1] = test system: 125I-prothrombin
125I-prothrombin [2] = target: 125I-prothrombin; remark: listed apart in the source

Human Factor Xa
prothrombin cleavage assay (125I-prothrombin, 10% SDS-PAGE, autoradiography); positive control (125I-prothrombin [1]): Addition of human factor X in the presence of calcium and factor V produced cleavage products corresponding to known derivatives of prothrombin

B1: mfgl2 fusion protein (murine fgl2 with six histidine residues followed by an enterokinase site at the N-terminus) (protein)
chain: VEEHNLTEGLEDASAQAACPARLEGSGRCEGSQCPFQLTLPTLTIQLPRQLGSMEEVLKEVRTLKEAVDSLKKSCQDCKLQADDHRDPGGNGGNGAETAEDSRVQELESQVNKLSSELKNAKDQIQGLQGRLETLHLVNMNNIENYVDNKVANLTVVVNSLDGKCSKCPSQEHMQSQPVQHLIYKDCSDHYVLGRRSSGAYRVTPDHRNSSFEVYCDMETMGGGWTVLQARLDGSTNFTREWKDYKAGFGNLEREFWLGNDKIHLLTKSKEMILRIDLEDFNGLTLYALYDQFYVANEFLKYRLHIGNYNGTAGDALRFSRHYNHDLRFFTTPDRDNDRYPSGNCGLYYSSGWWFDSCLSANLNGKYYHQKYKGVRNGIFWGTWPGINQAQPGGYKSSFKQAKMMIRPKNFKP
one-stage clotting assay (PCA) in coagulation factor-deficient human plasmas (125I-prothrombin [2]): The PCA expressed by recombinant virus infected cells was independent of all factors except 11 (prothrombin) | prothrombin cleavage assay (125I-prothrombin, 10% SDS-PAGE, autoradiography); purified mfgl2 fusion protein (125I-prothrombin [2]): incubation of 1251-prothrombin with uninfected High 5 cell homogenates or purified protein exhibited no prothrombin cleavage
